Data reported in article PMC7310041.

Molecular target: microtubules (paclitaxel-stabilised polymerised tubulin) (human (endogenous in HEK293T)) (UniProt P68363)
Test: co-sedimentation; cell-based MT binding assay: lysate of transfected HEK293T cells in PEM buffer (80 mM PIPES pH 6.8, 1 mM EGTA, 1 mM MgCl2) with 0.1% Triton X-100, 2 mM GTP, 20 uM paclitaxel; 37 °C 30 min; 100,000 g 30 min; tau in supernatant and pellet by Western blot; percent MT-bound = pellet/(supernatant+pellet)*100

Chain of UniProt P68363 (P68363 whole entry, chain 1 of 2): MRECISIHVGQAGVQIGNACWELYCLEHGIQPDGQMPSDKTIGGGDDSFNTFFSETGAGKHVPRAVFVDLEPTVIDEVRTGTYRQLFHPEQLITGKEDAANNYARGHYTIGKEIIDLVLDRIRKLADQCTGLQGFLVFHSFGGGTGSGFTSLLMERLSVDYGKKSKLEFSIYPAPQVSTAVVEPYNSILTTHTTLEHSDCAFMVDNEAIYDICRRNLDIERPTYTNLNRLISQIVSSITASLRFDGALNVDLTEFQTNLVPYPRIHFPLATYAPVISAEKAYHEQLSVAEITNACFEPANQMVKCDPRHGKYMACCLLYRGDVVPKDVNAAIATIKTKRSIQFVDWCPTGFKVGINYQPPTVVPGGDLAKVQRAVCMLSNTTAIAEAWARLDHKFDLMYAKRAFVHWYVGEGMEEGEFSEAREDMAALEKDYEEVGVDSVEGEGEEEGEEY
Chain of UniProt P68363 (P07437 whole entry, chain 2 of 2, further chain): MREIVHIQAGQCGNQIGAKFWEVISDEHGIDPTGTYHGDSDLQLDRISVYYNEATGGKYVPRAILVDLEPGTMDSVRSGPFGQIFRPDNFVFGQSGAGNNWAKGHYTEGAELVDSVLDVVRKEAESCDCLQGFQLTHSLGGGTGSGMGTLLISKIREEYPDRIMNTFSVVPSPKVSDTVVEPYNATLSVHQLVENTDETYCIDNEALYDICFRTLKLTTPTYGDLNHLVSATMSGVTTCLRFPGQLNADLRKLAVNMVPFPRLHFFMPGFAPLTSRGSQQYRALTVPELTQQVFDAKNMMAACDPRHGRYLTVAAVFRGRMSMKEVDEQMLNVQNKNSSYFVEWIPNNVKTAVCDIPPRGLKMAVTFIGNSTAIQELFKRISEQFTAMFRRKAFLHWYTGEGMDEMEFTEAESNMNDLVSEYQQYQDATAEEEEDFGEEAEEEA

percent of tau bound to MTs: 41%
Substance: 2N4R human tau S208E phosphomimetic (from UniProt P10636-8 1-441) (natural protein)
